Measured values from publication PMC9741242, “Insights into the Structure of the Highly Glycosylated Ffase from Rhodotorula dairenensis Enhance Its Biotechnological Potential” (International Journal of Molecular Sciences, 2022).

Key:
[1] = molecular target: D188A-RdINVΔ21–139, truncated inactivated mutant of Rhodotorula dairenensis β-fructofuranosidase (Rhodotorula dairenensis CECT 1416); test: crystal structure; D188A-RdINVΔ21–139, deglycosylated, complexes with fructose, sucrose or raffinose; PEG 3350, Bis-Tris pH 5.5; space group P2(1), four molecules in the asymmetric unit
[2] = molecular target: β-fructofuranosidase from Rhodotorula dairenensis (RdINV), wild type (Rhodotorula dairenensis CECT 1416); test: crystal structure; wild-type RdINV, deglycosylated; 25% PEG 3350, 0.2 M ammonium acetate, 0.1 M Bis-Tris pH 5.5; space group C222(1), two molecules in the asymmetric unit

| Substance | stoichiometry N [1] | stoichiometry N [2] |
| --- | --- | --- |
| D188A-RdINVΔ21–139, truncated inactivated mutant of Rhodotorula dairenensis β-fructofuranosidase (enzyme) | 2 | – |
| β-fructofuranosidase from Rhodotorula dairenensis (RdINV), wild type (enzyme) | – | 2 |
